Data as given in article PMC11014671, “Small molecules that disrupt RAD54-BLM interaction hamper tumor proliferation in colon cancer chemoresistance models” (The Journal of Clinical Investigation, 2024).

Assays:
[1] = target: His-RAD54 WT (full-length recombinant RAD54) (UniProt Q92698); assay: BLI; Octet; His-RAD54 WT immobilized onto Ni-NTA sensor, different concentrations of biotin BLM_peptide
RAD54 = target: T1, RAD54 (Homo sapiens, UniProt Q92698); assay: biolayer interferometry (His-RAD54 immobilized); tryptophan fluorescence quenching; assay type: binding
T1 construct: gene RAD54L; His-RAD54
T1 sequence (Q92698 1-747): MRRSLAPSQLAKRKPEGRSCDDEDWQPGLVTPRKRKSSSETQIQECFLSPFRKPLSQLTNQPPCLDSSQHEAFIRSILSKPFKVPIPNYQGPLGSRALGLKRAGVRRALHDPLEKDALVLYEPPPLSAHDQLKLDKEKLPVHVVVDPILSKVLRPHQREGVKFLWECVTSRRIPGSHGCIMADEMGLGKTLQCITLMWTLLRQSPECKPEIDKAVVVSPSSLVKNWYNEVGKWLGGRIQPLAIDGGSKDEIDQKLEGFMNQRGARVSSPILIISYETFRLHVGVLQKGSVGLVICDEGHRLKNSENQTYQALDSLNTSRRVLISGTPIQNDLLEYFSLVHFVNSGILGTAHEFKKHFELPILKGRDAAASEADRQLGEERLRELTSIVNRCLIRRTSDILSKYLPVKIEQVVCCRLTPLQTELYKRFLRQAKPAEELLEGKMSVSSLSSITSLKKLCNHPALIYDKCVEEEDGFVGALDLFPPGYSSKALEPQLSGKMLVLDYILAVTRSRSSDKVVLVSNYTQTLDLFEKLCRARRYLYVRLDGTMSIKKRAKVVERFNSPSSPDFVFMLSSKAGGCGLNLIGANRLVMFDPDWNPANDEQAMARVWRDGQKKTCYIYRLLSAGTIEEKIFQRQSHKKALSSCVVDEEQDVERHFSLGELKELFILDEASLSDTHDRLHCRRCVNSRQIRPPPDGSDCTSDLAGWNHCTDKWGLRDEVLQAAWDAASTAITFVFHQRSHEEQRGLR

Kd [1]	Molecule	Kd (RAD54)
0.0108 µM	biotinylated BLM (aa 181–212) peptide	–
–	CC(=O)Nc1nnc(S(N)(=O)=O)s1 [C3, acetazolamide]	55.8 µM
